Assay results published in the supplement of paper PMC9112550, “Optimization of the antimicrobial peptide Bac7 by deep mutational scanning” (BMC Biology, 2022).

Tested on: Escherichia coli TOP10
Assay: shrunken log2 fold change of peptide-encoding DNA abundance (4.5 h post-induction vs induction); higher = less antimicrobial activity (less host growth inhibition)
Details: time post-induction: 4.5 h; library: site-saturation at positions 5, 18, 19, 20
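Also: peptides expressed intracellularly from a pBAD plasmid library in pooled LB shake-flask culture, induced with 0.3% L-arabinose, DNA abundance read by NGS, three biological replicates, DESeq2 with apeglm shrinkage.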

| Sequence | shrunken log2 fold change |
| --- | --- |
| RRIRRRPPRLPRPRPRPFVTPRP | -0.0614 |
| RRIRGRPPRLPRPRPRPSNNPRP | 0.0994 |
| RRIRIRPPRLPRPRPRPGQSPRP | 0.0669 |
| RRIRVRPPRLPRPRPRPWNHPRP | -0.152 |
| RRIRRRPPRLPRPRPRPIQQPRP | -0.0495 |
| RRIRTRPPRLPRPRPRPAYQPRP | -0.0436 |
| RRIRDRPPRLPRPRPRPTGSPRP | 0.0325 |
| RRIRRRPPRLPRPRPRPISHPRP | -0.215 |
| RRIRFRPPRLPRPRPRPRRNPRP | 0.136 |
| RRIRVRPPRLPRPRPRPEVAPRP | 1.82 |
| RRIRERPPRLPRPRPRPARLPRP | 0.361 |
| RRIRFRPPRLPRPRPRPMQIPRP | -0.147 |
| RRIRNRPPRLPRPRPRPTEFPRP | -0.043 |
| RRIRSRPPRLPRPRPRPVNPPRP | -0.118 |
| RRIRCRPPRLPRPRPRPWWVPRP | -0.208 |
| RRIRARPPRLPRPRPRPCNRPRP | 0.0805 |
| RRIRKRPPRLPRPRPRPGPSPRP | 2.27 |
| RRIRIRPPRLPRPRPRPSVDPRP | -0.326 |
| RRIRGRPPRLPRPRPRPVRIPRP | 0.536 |
| RRIRHRPPRLPRPRPRPVDCPRP | -0.0119 |
| RRIRPRPPRLPRPRPRPAPSPRP | 0.51 |
| RRIRCRPPRLPRPRPRPKPKPRP | 0.407 |
| RRIRHRPPRLPRPRPRPSADPRP | -0.428 |

| Sequence | shrunken log2 fold change |
| --- | --- |
| RRIRQRPPRLPRPRPRPWIDPRP | -0.0353 |
| RRIRNRPPRLPRPRPRPPIGPRP | 0.106 |
| RRIRFRPPRLPRPRPRPALHPRP | -0.0349 |
| RRIRCRPPRLPRPRPRPGSRPRP | 0.235 |
| RRIRIRPPRLPRPRPRPQPSPRP | -0.214 |
| RRIRFRPPRLPRPRPRPCHDPRP | 0.236 |
| RRIRVRPPRLPRPRPRPYIFPRP | -0.864 |
| RRIRKRPPRLPRPRPRPPYDPRP | -0.0658 |
| RRIRCRPPRLPRPRPRPVNAPRP | -0.0831 |
| RRIRIRPPRLPRPRPRPDCEPRP | -0.0193 |
| RRIRWRPPRLPRPRPRPIFRPRP | 0.0199 |
| RRIRCRPPRLPRPRPRPIIRPRP | -0.18 |
| RRIRVRPPRLPRPRPRPTPWPRP | 0.294 |
| RRIRIRPPRLPRPRPRPKQPPRP | 0.102 |
| RRIRERPPRLPRPRPRPAMSPRP | -0.0829 |
| RRIRHRPPRLPRPRPRPHWLPRP | -0.123 |
| RRIRTRPPRLPRPRPRPHCRPRP | -0.0822 |
| RRIRKRPPRLPRPRPRPEEMPRP | -0.000157 |
| RRIRGRPPRLPRPRPRPARKPRP | 0.222 |
| RRIRMRPPRLPRPRPRPDSSPRP | 0.0874 |
| RRIRGRPPRLPRPRPRPRYAPRP | 0.399 |
| RRIRERPPRLPRPRPRPSGNPRP | -0.636 |
| RRIRIRPPRLPRPRPRPWQRPRP | -0.075 |

| Sequence | shrunken log2 fold change |
| --- | --- |
| RRIRRRPPRLPRPRPRPAPYPRP | 0.408 |
| RRIRCRPPRLPRPRPRPTRLPRP | 0.558 |
| RRIRMRPPRLPRPRPRPNEQPRP | 0.37 |
| RRIRDRPPRLPRPRPRPVPDPRP | -0.0933 |
| RRIRHRPPRLPRPRPRPYMSPRP | -0.236 |
| RRIRLRPPRLPRPRPRPPECPRP | -0.29 |
| RRIRQRPPRLPRPRPRPCPVPRP | -0.477 |
| RRIRTRPPRLPRPRPRPQCQPRP | -0.0883 |
| RRIRFRPPRLPRPRPRPEKHPRP | 0.176 |
| RRIRQRPPRLPRPRPRPGFPPRP | -0.0539 |
| RRIRQRPPRLPRPRPRPKVAPRP | -0.00277 |
| RRIRQRPPRLPRPRPRPDADPRP | -0.0253 |
| RRIRSRPPRLPRPRPRPCNYPRP | -0.455 |
| RRIRHRPPRLPRPRPRPKFEPRP | -0.125 |
| RRIRCRPPRLPRPRPRPGHGPRP | -0.0435 |
| RRIRNRPPRLPRPRPRPQSQPRP | -0.7 |
| RRIRGRPPRLPRPRPRPPYFPRP | 0.0555 |
| RRIRDRPPRLPRPRPRPMMAPRP | -0.00174 |
| RRIRFRPPRLPRPRPRPTDCPRP | -0.0151 |
| RRIRSRPPRLPRPRPRPKIRPRP | -0.177 |
| RRIRGRPPRLPRPRPRPAKIPRP | 0.226 |
| RRIRQRPPRLPRPRPRPGVCPRP | -0.126 |
| RRIRIRPPRLPRPRPRPTITPRP | -0.996 |

| Sequence | shrunken log2 fold change |
| --- | --- |
| RRIRLRPPRLPRPRPRPDGVPRP | -0.0786 |
| RRIRWRPPRLPRPRPRPNAQPRP | -0.0306 |
| RRIRQRPPRLPRPRPRPPLDPRP | 0.685 |
| RRIRERPPRLPRPRPRPKWEPRP | 0.0179 |
| RRIRNRPPRLPRPRPRPITQPRP | -0.187 |
| RRIRGRPPRLPRPRPRPTPYPRP | 0.324 |
| RRIRHRPPRLPRPRPRPDIFPRP | -0.223 |
| RRIRGRPPRLPRPRPRPQRSPRP | 0.16 |
| RRIRQRPPRLPRPRPRPVDYPRP | 0.0237 |
| RRIRPRPPRLPRPRPRPQERPRP | 0.0985 |
| RRIRARPPRLPRPRPRPDMNPRP | 0.31 |
| RRIRFRPPRLPRPRPRPHFCPRP | -1.02 |
| RRIRARPPRLPRPRPRPEQEPRP | 0.00961 |
| RRIRTRPPRLPRPRPRPYHCPRP | 0.0119 |
| RRIRRRPPRLPRPRPRPLLQPRP | 0.512 |
| RRIRDRPPRLPRPRPRPTAMPRP | 0.858 |
| RRIRYRPPRLPRPRPRPPWIPRP | -0.447 |
| RRIRNRPPRLPRPRPRPSHRPRP | 0.0906 |
| RRIRERPPRLPRPRPRPRCTPRP | -0.0287 |
| RRIRARPPRLPRPRPRPWESPRP | 0.192 |
| RRIRSRPPRLPRPRPRPYPIPRP | -0.356 |
| RRIRARPPRLPRPRPRPCTIPRP | -0.000283 |
